These results are taken from patent US7067495.

The target in the assay is human IL-8 in L-CMV melanoma cell conditioned medium (human) (UniProt P10145). The assay can be described thus: cell-based or functional assay.
Chain of UniProt P10145 (P10145 23-99 limits assumed): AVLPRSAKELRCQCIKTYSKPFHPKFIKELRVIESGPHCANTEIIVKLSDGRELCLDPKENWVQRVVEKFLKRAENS

In turn, “mouse anti-hIL-8 mAb (6214.11, R&D Systems) (antibody)” gave an inhibition of PMNLs chemotaxis induced by L-CMV CCM of 30%.
